Assay results: patent US20220089647A1 (FUJIFILM, published 2022)
Starred links: 1 amine or outer side, 2 acyl side, 3 side chain; linkers in the order of their positions; H or OH if unused. Positions of bridges follow the written chain, without caps; N, C: chain ends. Non-standard residues stand in square brackets, D forms with d. Primed or numbered codes have the meaning given here. No end group written: not given here. Dab(acetyl)″ = 2-amino-4-(acetylamino)butanoic acid, acetyl CH3 carbon bonded to the S of Hcy (S-CH2-C(=O)-NH-), O=C(C[*:3])NCC[C@H](N[*:1])C(=O)[*:2]; Dab(acetyl) = 2-amino-4-acetylamino-butanoic acid residue (N-γ-acetyl-diaminobutyric acid), CC(=O)NCC[C@H](N[*:1])C(=O)[*:2]; Dab(acetyl)(3) = 2-amino-4-(acetylamino)butanoic acid (Dab with N-γ-acetyl), CC(=O)NCC[C@H](N[*:1])C(=O)[*:2]; COCH2 = acetyl group that carries the bridge; hCys = N[C@@H](CCS)C(=O)O; Dab = NCC[C@H](N)C(=O)O

B1: Cyclic peptide 54 (peptide)
peptide: KKKG[hCys]IPRGDTFR[Dab(acetyl)″]A
modifications: thioether 5-14
B2: Cyclic peptide 108 (peptide)
peptide: KKKA[hCys]VPRGDTFA[Dab(acetyl)″]A
modifications: thioether 5-14
B3: Cyclic peptide 1 (peptide)
peptide: KKKG[hCys]IPRGDNFR[Dab(acetyl)(3)]A
modifications: thioether 5-14
B4: Cyclic peptide 97 (peptide)
peptide: KKKA[hCys]VPRGDSFA[Dab(acetyl)]G
modifications: thioether 5-14
B5: Cyclic peptide 77 (peptide)
peptide: KKKAXISRGDTFRXA
modifications: not fully specified; KKKA-(Hcy)-ISRGDTFR(Dab(acetyl))A; thioether bond Hcy-Dab(acetyl)
B6: Cyclic peptide 2 (peptide)
peptide: KKKA[hCys]IPRGDNFR[Dab](COCH2)A
modifications: thioether 5-14
B7: Cyclic peptide 88 (peptide)
peptide: KKKA[hCys]IPRGDTFG[Dab(acetyl)]A
modifications: thioether 5-14
B8: Cyclic peptide 27 (peptide)
peptide: KKKG[hCys]LPRGDNFR[Dab](COCH2)A
modifications: thioether 5-14
B9: Cyclic peptide 75 (peptide)
peptide: KKKAXTPRGDTFRXA
modifications: not fully specified; KKKA-(Hcy)-TPRGDTFR(Dab(acetyl))A; thioether bond Hcy-Dab(acetyl)
B10: Cyclic peptide 84 (peptide)
peptide: KKKGXIPRGDTFAXG
modifications: not fully specified; KKKG-(Hcy)-IPRGDTFA(Dab(acetyl))G; thioether bond Hcy-Dab(acetyl)
B11: Cyclic peptide 85 (peptide)
peptide: KKKAXIPRGDTFAXG
modifications: not fully specified; KKKA-(Hcy)-IPRGDTFA(Dab(acetyl))G; thioether bond Hcy-Dab(acetyl)
B12: Cyclic peptide 71 (peptide)
peptide: KKKGXLPRGDTFRXA
modifications: not fully specified; KKKG-(Hcy)-LPRGDTFR(Dab(acetyl))A; thioether bond Hcy-Dab(acetyl)
B13: Cyclic peptide 78 (peptide)
peptide: KKKAXIPRGDVFRXA
modifications: not fully specified; KKKA-(Hcy)-IPRGDVFR(Dab(acetyl))A; thioether bond Hcy-Dab(acetyl)
B14: Cyclic peptide 83 (peptide)
peptide: KKKAXIPRGDTFSXA
modifications: not fully specified; KKKA-(Hcy)-IPRGDTFS(Dab(acetyl))A; thioether bond Hcy-Dab(acetyl)
B15: Cyclic peptide 86 (peptide)
peptide: KKKG[hCys]IPRGDTFA[Dab(acetyl)]A
modifications: thioether 5-14
B16: Cyclic peptide 74 (peptide)
peptide: KKKAXVPRGDTFRXA
modifications: not fully specified; KKKA-(Hcy)-VPRGDTFR(Dab(acetyl))A; thioether bond Hcy-Dab(acetyl)
B17: Cyclic peptide 96 (peptide)
peptide: KKKA[hCys]VPRGDSFA[Dab(acetyl)]A
modifications: thioether 5-14
B18: Cyclic peptide 69 (peptide)
peptide: KKKGXEPRGDTFRXA
modifications: not fully specified; KKKG-(Hcy)-EPRGDTFR(Dab(acetyl))A; thioether bond Hcy-Dab(acetyl)
B19: Cyclic peptide 94 (peptide)
peptide: KKKG[hCys]IPRGDSFA[Dab(acetyl)]A
modifications: thioether 5-14
B20: Cyclic peptide 106 (peptide)
peptide: KKKG[hCys]VPRGDTFA[Dab(acetyl)″]A
modifications: thioether 5-14
B21: Cyclic peptide 87 (peptide)
peptide: KKKA[hCys]IPRGDTFA[Dab(acetyl)]A
modifications: thioether 5-14
B22: Cyclic peptide 95 (peptide)
peptide: KKKG[hCys]IPRGDSFA[Dab(acetyl)]G
modifications: thioether 5-14
B23: Cyclic peptide 99 (peptide)
peptide: KKKG[hCys]VPRGDSFA[Dab(acetyl)]G
modifications: thioether 5-14
B24: Cyclic peptide 70 (peptide)
peptide: KKKGXVPRGDTFRXA
modifications: not fully specified; KKKG-(Hcy)-VPRGDTFR(Dab(acetyl))A; thioether bond Hcy-Dab(acetyl)
B25: Cyclic peptide 90 (peptide)
peptide: KKKA[hCys]IPRGDAFA[Dab(acetyl)]A
modifications: thioether 5-14
B26: Cyclic peptide 107 (peptide)
peptide: KKKA[hCys]VPRGDTFA[Dab(acetyl)″]G
modifications: thioether 5-14
B27: Cyclic peptide 56 (peptide)
peptide: KKKA[hCys]IPRGDTFR[Dab(acetyl)″]A
modifications: thioether 5-14
B28: Cyclic peptide 98 (peptide)
peptide: KKKG[hCys]VPRGDSFA[Dab(acetyl)]A
modifications: thioether 5-14
B29: Cyclic peptide 91 (peptide)
peptide: KKKA[hCys]VPRGDAFA[Dab(acetyl)]A
modifications: thioether 5-14
B30: Cyclic peptide 136 (peptide)
peptide: KKKAXVPRGDTFAXA
modifications: not fully specified; KKKA(Dab(acetyl))VPRGDTFA-(Pen)-A; thioether bond Dab(acetyl)-Pen
B31: Cyclic peptide 105 (peptide)
peptide: KKKG[hCys]VPRGDTFA[Dab(acetyl)″]G
modifications: thioether 5-14
B32: Cyclic peptide 92 (peptide)
peptide: KKKA[hCys]IPRGDSFA[Dab(acetyl)]A
modifications: thioether 5-14
B33: Cyclic peptide 93 (peptide)
peptide: KKKA[hCys]IPRGDSFA[Dab(acetyl)]G
modifications: thioether 5-14
B34: Cyclic peptide 122 (peptide)
peptide: KKKAXVPRGDTFAXA
modifications: not fully specified; KKKA(Dab(acetyl))VPRGDTFA-(Hcy)-A; thioether bond Dab(acetyl)-Hcy
B35: Cyclic peptide 89 (peptide)
peptide: KKKA[hCys]VTRGDTFR[Dab(acetyl)]A
modifications: thioether 5-14
B36: Cyclic peptide 55 (peptide)
peptide: KKKG[hCys]IPRGDTFR[Dab(acetyl)″]G
modifications: thioether 5-14
B37: Cyclic peptide 100 (peptide)
peptide: A[hCys]IPRGDSFA[Dab(acetyl)″]AKKK
modifications: thioether 2-11
B38: Cyclic peptide 104 (peptide)
peptide: KKK[hCys]VPRGDTFA[Dab(acetyl)″]
modifications: thioether 4-13
B39: Cyclic peptide 11 (peptide)
peptide: KKK[hCys]IPRGDNFR[Dab(acetyl)(3)]
modifications: thioether 4-13
B40: Cyclic peptide 101 (peptide)
peptide: KKK[hCys]IPRGDSFA[Dab(acetyl)″]
modifications: thioether 4-13
B41: Cyclic peptide 102 (peptide)
peptide: KKK[hCys]VPRGDSFA[Dab(acetyl)″]
modifications: thioether 4-13
B42: Cyclic peptide 62 (peptide)
peptide: KKK[hCys]IPRGDTFA[Dab(acetyl)″]
modifications: thioether 4-13
B43: Cyclic peptide 61 (peptide)
peptide: KKK[hCys]IPRGDTFR[Dab(acetyl)″]
modifications: thioether 4-13
B44: Cyclic peptide 109 (peptide)
peptide: A[hCys]VPRGDTFA[Dab(acetyl)″]AKKK
modifications: thioether 2-11
B45: Cyclic peptide 60 (peptide)
peptide: KKK[hCys]IPRGDTF[Dab(acetyl)″]A
modifications: thioether 4-12
B46: Cyclic peptide 112 (peptide)
peptide: KKKKKKA[hCys]VPRGDTFA[Dab(acetyl)″]A
modifications: thioether 8-17
B47: Cyclic peptide 103 (peptide)
peptide: [hCys]VPRGDTFA[Dab(acetyl)″]KKK
modifications: thioether 1-10
B48: Cyclic peptide 111 (peptide)
peptide: KKKKKA[hCys]VPRGDTFA[Dab(acetyl)″]A
modifications: thioether 7-16
B49: Cyclic peptide 110 (peptide)
peptide: KKKKA[hCys]VPRGDTFA[Dab(acetyl)(3)]A
modifications: thioether 6-15

Each binder was assayed against T1, human integrin αvβ5 (human, UniProt P06756 31-992; P18084 24-719, limits assumed) (assay: SPR, Biacore 3000, peptide immobilised; A = KD 50 nM or less).
T1 construct: Heterodimer flowed as analyte at 30, 100, 300 and 1,000 nM in HEPES buffer with 5 mM MgCl2
T1 sequence (P06756 31-992 limits assumed, chain 1 of 2): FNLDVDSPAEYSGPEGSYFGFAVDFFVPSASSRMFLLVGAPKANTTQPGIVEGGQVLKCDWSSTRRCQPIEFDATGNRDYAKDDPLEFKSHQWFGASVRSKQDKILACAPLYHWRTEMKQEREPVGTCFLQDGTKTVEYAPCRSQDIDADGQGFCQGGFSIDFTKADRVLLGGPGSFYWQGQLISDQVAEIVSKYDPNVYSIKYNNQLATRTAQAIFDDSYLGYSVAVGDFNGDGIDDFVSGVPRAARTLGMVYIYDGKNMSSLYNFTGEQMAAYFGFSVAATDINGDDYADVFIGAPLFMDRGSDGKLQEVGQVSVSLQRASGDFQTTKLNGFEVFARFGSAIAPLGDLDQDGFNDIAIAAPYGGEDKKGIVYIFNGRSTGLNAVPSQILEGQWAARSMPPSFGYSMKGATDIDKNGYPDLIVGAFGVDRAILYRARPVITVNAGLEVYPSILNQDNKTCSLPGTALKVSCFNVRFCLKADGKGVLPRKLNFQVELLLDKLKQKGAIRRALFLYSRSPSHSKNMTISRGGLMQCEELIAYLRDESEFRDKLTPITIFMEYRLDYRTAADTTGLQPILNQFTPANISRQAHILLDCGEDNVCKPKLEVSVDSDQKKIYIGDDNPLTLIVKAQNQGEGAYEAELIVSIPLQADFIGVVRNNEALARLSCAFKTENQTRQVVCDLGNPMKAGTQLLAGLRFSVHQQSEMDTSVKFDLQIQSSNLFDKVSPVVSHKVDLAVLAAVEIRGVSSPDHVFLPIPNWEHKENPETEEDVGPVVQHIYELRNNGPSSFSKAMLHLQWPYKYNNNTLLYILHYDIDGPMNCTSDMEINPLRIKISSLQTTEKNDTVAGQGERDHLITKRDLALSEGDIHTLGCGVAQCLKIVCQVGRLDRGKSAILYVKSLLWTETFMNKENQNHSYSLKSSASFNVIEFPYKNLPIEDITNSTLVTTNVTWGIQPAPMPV
T1 sequence (P18084 24-719 limits assumed, chain 2 of 2): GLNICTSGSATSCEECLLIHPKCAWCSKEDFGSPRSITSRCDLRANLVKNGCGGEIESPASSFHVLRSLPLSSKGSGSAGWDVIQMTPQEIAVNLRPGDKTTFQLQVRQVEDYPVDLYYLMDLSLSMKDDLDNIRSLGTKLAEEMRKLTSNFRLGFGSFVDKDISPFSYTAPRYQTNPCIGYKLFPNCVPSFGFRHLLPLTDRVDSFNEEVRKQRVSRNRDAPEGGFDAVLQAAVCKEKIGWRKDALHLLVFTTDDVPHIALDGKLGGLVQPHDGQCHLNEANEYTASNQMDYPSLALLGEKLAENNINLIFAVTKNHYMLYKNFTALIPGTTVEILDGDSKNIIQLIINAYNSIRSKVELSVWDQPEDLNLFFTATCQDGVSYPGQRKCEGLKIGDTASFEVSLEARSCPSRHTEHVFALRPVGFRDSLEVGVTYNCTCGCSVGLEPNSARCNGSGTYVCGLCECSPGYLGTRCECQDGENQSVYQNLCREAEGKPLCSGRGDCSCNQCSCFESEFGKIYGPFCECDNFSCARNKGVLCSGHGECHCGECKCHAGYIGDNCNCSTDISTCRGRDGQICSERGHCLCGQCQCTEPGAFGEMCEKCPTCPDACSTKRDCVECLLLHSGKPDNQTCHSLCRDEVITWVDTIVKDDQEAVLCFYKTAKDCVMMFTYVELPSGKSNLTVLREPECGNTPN
Experimental: However, only for the cyclic peptides 125, 126, and 127, in which the number of lysine residues having an amino group as the immobilizing functional group was zero, the amount of the sample solution to be supplied to the sensor chip was set to 500 μL instead of 20 μL. Further, 70 μL of the mixed aqueous solution of 0.2 M EDC and 0.04 M NHS was added to another flow channel of the same sensor chip without immobilizing the sample, and then blocking treatment and washing treatment were carried out. Hereinafter, the obtained immobilization-treated sensor chip is referred to as an “immobilization-treated sensor chip A”.
After adding human integrin αvβ5 for 10 minutes at 25° C., which was diluted to 30 nM using a HEPES buffer solution to which magnesium chloride was added to 5 mM, in each flow channel of the immobilization-treated sensor chip A prepared in (1) above, the same HEPES buffer solution (containing 5 mM magnesium chloride) was allowed to flow as a running buffer for 30 minutes, and measurement was carried out with Biacore 3000. Then, a regeneration treatment of removing human integrin αvβ5 was carried out by allowing a 0.5 M EDTA aqueous solution to flow through each flow channel for 10 minutes. Further, the above-described measurement process consisting of adding integrin for 10 minutes, allowing a running buffer to flow for 30 minutes, carrying out measurement with Biacore 3000, and carrying out regeneration treatment with 0.5 M EDTA aqueous solution was carried out in the same manner for 100 nM human integrin αvβ5, 300 nM human integrin αvβ5, and 1,000 nM human integrin αvβ5. Dissociation constant between the cyclic peptide and human integrin αvβ5 was calculated from the difference between the value measured by Biacore 3000 in the flow channel immobilized with the cyclic peptide and the value measured by Biacore 3000 in the flow channel unimmobilized with the cyclic peptide, in a case where each concentration of human integrin αvβ5 was allowed to flow, and the integrin binding property was evaluated according to the following evaluation standards. It is preferable that the evaluation result satisfies the evaluation standard A, B, or C.
With B1 the “dissociation constant (KD)” value was at most 0.05 µM. Binder B2 has a dissociation constant of at most 50 nM. With B3 the “dissociation constant (KD)” value was at most 0.05 µM. B4 gave a dissociation constant of at most 50 nM. With B5 the dissociation constant was at most 50 nM. For B6, the “dissociation constant (KD)” value was at most 0.05 µM. B7 gave a dissociation constant of at most 50 nM. With B8 the “dissociation constant (KD)” value was at most 0.05 µM. B9 was tested, and the dissociation constant was at most 50 nM. For B10, the dissociation constant was at most 50 nM. Work on B11 yielded a dissociation constant of at most 50 nM. For B12, the dissociation constant was at most 50 nM. Binder B13 has a dissociation constant of at most 50 nM. Work on B14 yielded a dissociation constant of at most 50 nM. Binder B15 has a dissociation constant of at most 50 nM. Binder B16 has a dissociation constant of at most 50 nM. B17 showed a dissociation constant of at most 50 nM. Work on B18 yielded a dissociation constant of at most 50 nM. For B19, the dissociation constant was at most 50 nM. With B20 the dissociation constant was at most 50 nM. B21 gave a dissociation constant of at most 50 nM. With B22 the dissociation constant was at most 50 nM. With B23 the dissociation constant was at most 50 nM. B24 gave a dissociation constant of at most 50 nM. Work on B25 yielded a dissociation constant of at most 50 nM. For B26, the dissociation constant was at most 50 nM. With B27 the “dissociation constant (KD)” value was at most 0.05 µM. For B28, the dissociation constant was at most 50 nM. B29 showed a dissociation constant of at most 50 nM. In the case of B30, the dissociation constant is reported as at most 50 nM. Work on B31 yielded a dissociation constant of at most 50 nM. Binder B32 has a dissociation constant of at most 50 nM. B33 was tested, and the dissociation constant was at most 50 nM. Work on B34 yielded a dissociation constant of at most 50 nM. B35 showed a dissociation constant of at most 50 nM. With B36 the “dissociation constant (KD)” value was at most 0.05 µM. Binder B37 has a dissociation constant of at most 50 nM. Binder B38 has a dissociation constant of at most 50 nM. In the case of B39, the “dissociation constant (KD)” value is reported as at most 0.05 µM. Binder B40 has a dissociation constant of at most 50 nM. B41 gave a dissociation constant of at most 50 nM. B42 showed a dissociation constant of at most 50 nM. Binder B43 has a dissociation constant of at most 50 nM. Work on B44 yielded a dissociation constant of at most 50 nM. With B45 the “dissociation constant (KD)” value was at most 0.05 µM. B46 gave a dissociation constant of at most 50 nM. B47 showed a dissociation constant of at most 50 nM. With B48 the dissociation constant was at most 50 nM. Binder B49 has a dissociation constant of at most 50 nM.
